From publication PMC5371579, “Expression of a new laccase from Moniliophthora roreri at high levels in Pichia pastoris and its potential application in micropollutant degradation” (AMB Express, 2017) come the findings set out here.

Common to all, as to assay: purified protein
Common to all, as to assay type: biochemical, Moniliophthora roreri

Substrate in series [1]: CCn1c(=NN=c2sc3cc(S(=O)(=O)O)ccc3n2CC)sc2cc(S(=O)(=O)O)ccc21
Particulars: 100 mM citrate phosphate buffer at optimal pH (pH 2 stated for ABTS).

Substrate in series [2]: COc1cc(C=NN=Cc2cc(OC)c(O)c(OC)c2)cc(OC)c1O
To be noted: 100 mM citrate phosphate buffer, pH 4 (optimum).

Substrate in series [3]: COc1cccc(OC)c1O
Particulars: 100 mM citrate phosphate buffer, pH 4 (optimum).

Substrate in series [4]: COc1ccccc1O
Particulars: 100 mM citrate phosphate buffer, pH 5 (optimum).

B1: Mrl2 (Moniliophthora roreri MCA 2997) (protein)
chain: SIGPIADLVISNQDVSPDGFTRSAVVAGGDTIGPLIVGNKNDNLQINVVNNLDDDTMLQSTSIHWHGFFQQSTNWADGTAFVNQCPIAKGNSFLYDFDATDQAGTFWYHSHLSTQYCDGLRGPIVIYDPDDPHASLYDVDDESTVITLADWYHTKAKEITFGTPDSTLINGLGRWSQGNETDLSVITVTSGQRYRMRLINTACDAAYTFSIDNHTMTVIEADAVNIEPIEVDSLTIYAGQRYSFVLNADQAVGNYWIRANPNIGTMGYTNGINSAILRYDTAEEEEPDVLDITSTNSLSEADLVPLENPGAPGDPVVGGVDYALHLDFAFTSAATFTVNDATFVPPTVPVLLQILSGAQTADTLLPSGSVVALPSNSTIELSMTGGLLGLEHPIHLHGHNFDVVRVAGSTEYNYENPIRRDVVNAGSTSDNVTIRFTTDNPGPWILHCHIDWHLEAGFAIVFAEATDEWVDTIDPSDAWENLCPTYDALSDDDL
notes: native signal peptide replaced by S. cerevisiae alpha-factor leader (Kex2 cleavage; mature N-terminus SIGPI from primer); no tag (stop codon in reverse primer); codon-optimized gene; secreted from Pichia pastoris X-33, DEAE-purified, glycosylated (~90 kDa; calculated 54 kDa); EC 1.10.3.2
Turning to B1, the Km in the series “purified protein [1]” was found to be 24.13 ± 1.9 µM; in the series “purified protein [2]” it was 12.45 ± 1.6 µM; in the series “purified protein [3]” it was 358 ± 58.5 µM; in the series “purified protein [4]”, 2235 ± 117.5 µM. Also, the turnover number (kcat) turned out to be 316 s⁻¹ in “purified protein [1]”, 21 s⁻¹ in “purified protein [2]”, 74 s⁻¹ in the series “purified protein [3]” and 37 s⁻¹ in the series “purified protein [4]”. For the same protein, the kcat/Km in the series “purified protein [1]” was determined as 1.31e+07 M⁻¹ s⁻¹; in the series “purified protein [2]”, 1.68e+06 M⁻¹ s⁻¹; in “purified protein [3]” it was 207000 M⁻¹ s⁻¹; in the series “purified protein [4]”, 16000 M⁻¹ s⁻¹.

Broadly, the Km is the concentration of substrate that gives half-maximal velocity. The term kcat denotes the number of substrate molecules converted per active site and unit of time at saturation. A word on the kcat/Km: it is the turnover number divided by the Michaelis constant.
